# Reference: US20230212266A1 (FRED HUTCHINSON CANCER CENTER, published 2023)
# Like-named read-outs stand apart in the source and are kept apart here.
# Columns and labels:
# Test in all cases: BLI, mAb on anti-human Fc probe, antigen in solution
# [1] = target: T1, SARS-CoV-2 receptor binding domain (RBD) (SARS-CoV-2, UniProt P0DTC2 319-591)
# [2] = target: T1, SARS-CoV-2 receptor binding domain (RBD); remark: listed apart in the source
# [3] = target: T1, SARS-CoV-2 receptor binding domain (RBD); remark: listed apart in the source
# [4] = target: T1, SARS-CoV-2 receptor binding domain (RBD); remark: listed apart in the source
# [5] = target: T1, SARS-CoV-2 receptor binding domain (RBD); remark: listed apart in the source
# [6] = target: T1, SARS-CoV-2 receptor binding domain (RBD); remark: listed apart in the source
# [7] = target: T1, SARS-CoV-2 receptor binding domain (RBD); remark: listed apart in the source
# [8] = target: T1, SARS-CoV-2 receptor binding domain (RBD); remark: listed apart in the source
# [9] = target: T1, SARS-CoV-2 receptor binding domain (RBD); remark: listed apart in the source
# [10] = target: T1, SARS-CoV-2 receptor binding domain (RBD); remark: listed apart in the source
# [11] = target: T1, SARS-CoV-2 receptor binding domain (RBD); remark: listed apart in the source
# [12] = target: T1, SARS-CoV-2 receptor binding domain (RBD); remark: listed apart in the source
# [13] = target: T1, SARS-CoV-2 receptor binding domain (RBD); remark: listed apart in the source
# [14] = target: T1, SARS-CoV-2 receptor binding domain (RBD); remark: listed apart in the source
# [15] = target: T1, SARS-CoV-2 receptor binding domain (RBD); remark: listed apart in the source
# [16] = target: T1, SARS-CoV-2 receptor binding domain (RBD); remark: listed apart in the source
# [17] = target: T1, SARS-CoV-2 receptor binding domain (RBD); remark: listed apart in the source
binder,measurement,setting,value
"CV2-30 (antibody, V domains shown, expressed as IgG) VH: QVQLVQSGAEVKKPGSSVKVSCKASGGTFSSYAITWVRQAPGQGLEWMGGIIPIFGTANYAQKFQGRVTITADESTNTAYMELSSLTSEDTAVYYCAKIGDYDSSGYYFDYWAQGTLVTVSS VL: EIVLTQSPATLSLSPGERATLSCRASQSVSSFLAWYQQKPGQAPRLLIYDASNRATGIPARFSGSGSGTDFTLTISSLEPEDFAVYYCQQRSNWPPSITFGQGTRLEIK",binding result,[1],no binding
"CV2-24 (antibody, V domains shown, expressed as IgG) VH: EVQLVESGGGLVKPGGSLRLSCAASGFTFSSYSMNWVRQAPGKGLEWVSSISSTSNYIYYADSVKGRFTISRDNAKNSLYLQMNSLRAEDTAVYYCARVSPNYDFWSGYYPDAFDIWGQGTMVTVSS VL: not shown",binding result,[2],no binding
"CV2-25 (antibody, V domains shown, expressed as IgG) VH: EVQLVQSGAEVKKPGESLRISCKGSGYSFTSYWISWVRQMPGKGLEWMGKIDPSDSYTNYSPSFQGHVTISADKSISTAYLQWSSLKASDTAMYYCARQFGGELLGWFDPWGQGTLVTVSS VL: DIQMTQSPSSLSASVGDRVTITCRASQGISNYLAWYQQKPGKVPKLLIYAASTLQSGVPSRFSGSGSGTDFTLTISSLQPEDVATYYCQKYNSAPFTFGPGTKVDIK",binding result,[3],no binding
"CV2-26 (antibody, V domains shown, expressed as IgG) VH: QVQLVESGGGVVQPGRSLRLSCAAAGFIFSSYAMNWVRQAPGKGLEWVAVISYDGSNKYYADSVKGRFTISRDNSKNTLNLQMNSLRAEDTAVYYCARGNGYIIIDYWGQGTLVTVSS VL: QLVLTQSPSASASLGASVKLTCTLSSGHSSYAIAWHQQQPEKGPRYLMKFNSDGTHSKGDGIPDRFSGSSSGAERSLTISSLQSEDEADYYCQTWGTGGVFGGGTKLTVL",binding result,[4],no binding
"CV2-27 (antibody, V domains shown, expressed as IgG) VH: QLQLQESGPGLVKPSETLSLTCTVSGGSISSSSYYWGWIRQPPGKGLEFIGSIYYSGSTYYNPSLKSRVTISVDTSKNQFSLKLSSVTAADTAVYYCATQEVVLVRPYNYNGMDVWGQGTTVTVSS VL: QSALTQPASVSGSPGQSITLSCTGTSSDVGGYNYVSWYQQHPGKAPKLMIYEVSNRPSGVSNRFSGSKSGNTASLTISGLQAEDEADYYCSSYTSISTLVFGTGTKVTVL",binding result,[5],no binding
"CV2-28 (antibody, V domains shown, expressed as IgG) VH: QLQLQESGPGLVKPSETLSLTCTVSGGSVSSNAYYWGWIRQPPGKGLEWIGSVNYRGSTYYIPTLKSRITISVNTSKNQFSLKLTSVTAADTAVYYCARRGVALVTITYFDFWGQGALVTVSS VL: QSVLTQPPSVSGAPGQRVTITCTGSSSNIGSGYDVHWYQQLPGTAPKLLIYGNTNRPSGVPDRFSGSKSGTSASLAITGLQAEDEAHYYCQSYDSSVVFGGGTKLTVL",binding result,[6],no binding
"CV2-29 (antibody, V domains shown, expressed as IgG) VH: QVQLVESGGGVVQPGRSLRLSCAASGFTFSTYAMHWVRQAPGKGLEWVAVISYDGSNKYYADSVKGRFTISRDNSKNTLYLQMNSLRAEDTAVYYCARAYGGSYFYGMDVWGQGTTVTVSS VL: not shown",binding result,[7],no binding
"CV9 (antibody, V domains shown, expressed as IgG) VH: QLQLQESGPGLVKPSETLSLTCTVSGGSISSSSYYWGWIRQPPGKGLEWIGSIYYSGSTYYNPSLKSRVTISVDTSKNQFSLKLSSVTAADTAVYYCATHIVVVTATPNWYFDLWGRGTLVTVSS VL: QSALTQPASVSGSPGQSITISCTGTSSDVGGYNYVSWYQQHPGKAPKLMIYDVSNRPSGVSNRFSGSKSGNTASLTISGLQAEDEADYYCSSYTSISTWVFGGGTKLTVL",binding result,[8],no binding
"CV2-32 (antibody, V domains shown, expressed as IgG) VH: EVQLVESGGGLVQPGRSLRLSCTASGFTFGDYAMSWFRQAPGKGLEWVGFIRSKAYGGTTEYAASVKGRFTISRDDSKSIAYLQMNSLKTEDTAVYYCTMVWQQLHDAFDIWGQGTMVTVSS VL: SYELTQPPSVSVSPGQTARITCSGDALPKQYAYWYQQKPGQAPVLVIYKDSERPSGIPERFSGSSSGTTVTLTISGVQAEDEADYYCQSADSSGTYSWVFGGGTKLTVL",binding result,[9],no binding
"CV2-33 (antibody, V domains shown, expressed as IgG) VH: QVQLVQSGAEVKKPGSSVKVSCKASGGTFSSYAISWVRQAPGQGLEWMGGIIPIFGTANYAQKFQGRVTITADESTSTAYMELSSLRSEDTAVYYCARISSYDSSGYSMDVWGQGTTVTVSS VL: EIVLTQSPATLSLSPGERATLSCRASQSVSSYLAWYQQKPGQAPRLLIYDASNRATGIPARFSGSGSGTDFTLTISSLEPEDFAVYYCQQRSNWPPRVTFGPGTKVDIK",binding result,[10],no binding
"CV2-34 (antibody, V domains shown, expressed as IgG) VH: QVQLVESGGGVVQPGRSLRLSCAASRFTFSTYAMHWVRQAPGKGLEWVTVISYDGDNKYYADSVKGRFTISRDNSKNTLYLQMNSLRTEDTAVYYCTRAGSGSYLSYFDYWGQGTLVTVSS VL: not shown",binding result,[11],no binding
"CV2-35 (antibody, V domains shown, expressed as IgG) VH: EVQLVESGGGLVQPGGSLRLSCAASGFTFSNCWMSWVRQAPGKGLEWVANIKQDGSEKYYVDSVKGRFTISRDNAKNSLYLQMNSLRAEDTAVYYCARMGNTAWYFDLWGRGTLVTVSS VL: not shown",binding result,[12],no binding
"CV2-37 (antibody, V domains shown, expressed as IgG) VH: QVQLVQSGAEVKKPGASVKVSCRASGYTFTNFGISWVRQAPGLGLEWMGWISTYNGNTNYAQKLQGRVTMTTDTSTSTAYMELRSLRSDDTAVYYCARASGPYLLGLYWGQGTLVTVSS VL: QSVLTQPPSVSGAPGQRVTISCTGSSSNIGAGYDVHWYQQLPGTAPKLLIYGNSNRPSGVPDRFSGSKSGTSASLAITGLQAEDEADYYCQSYDSSLSDVVFGGGTKLTVL",binding result,[13],no binding
"CV2-38 (antibody, V domains shown, expressed as IgG) VH: QVQLVQSGAEVKKPGSSVKVSCKASGGTFSSYAISWVRQAPGQGLEWMGGIIPIFGTANYAQKFQGRVTITADESTSTAYMELSSLRSEDTAVYYCASARFITMVRGVINIYYYGMDVWGQGTTVTVSS VL: QSALTQPASVSGSPGQSITISCTGTSSDVGGYNYVSWYQQHPGKAPKLMIYEVSNRPSGVSNRFSGSKSGNTASLTISGLQAEDEADYYCSSYTSSSTLLFGGGTKLRSC",binding result,[14],no binding
"CV2-39 (antibody, V domains shown, expressed as IgG) VH: EVQLVESGGGLVQPGGSLRLSCSASGFTFSSYAMHWVRQAPGKGLEYVSGISSNGGSTYYADSVKGRITISRDNSKKTLYLQMSSLRAEDTAVYYCVKSSSRGYYWGQGTLVTVSS VL: not shown",binding result,[15],no binding
"CV2-40 (antibody, V domains shown, expressed as IgG) VH: QVQLVESGGGLVKPGGSLRLSCAASGFTFSDYYMSWIRQAPGKGLEWVSYISSRSSYTNYADSVKGRFTISRDNAKNSLYLQMNSLRAEDTAVYYCARGYDSSGYHYSLWGQGTLVTVSS VL: QSALTQPASVSGSPGQSITISCTGTSSDVGGYNYVSWYQQHPGKAPKLMIYEVSNRPSGVSNRFSGSKSGNTASLTISGLQAEDEADYYCSSYTNSRTLDVVFGGGTKLTVL",binding result,[16],no binding
"CV2-42 (antibody, V domains shown, expressed as IgG) VH: QVQLVQSGAEVKKPGASVKVSCKASGYTFTSYGISWVRQAPGQGLEWMGWISAYNGNTNYAQKLQGRVTMTTDTSTSTAYMELRSLRSDDTAVYYCARDRRGSGWSWDYYYYGMDVWGQGTTVTVSS VL: not shown",binding result,[17],no binding
